# Several values for one entry are separate records, joined by “and”; a condition that tells them apart may be missing. Equal entries are not always repeated. Entries after “also recorded” stand apart in the source; their conditions may differ.
# B1: nesfatin-1: 82 amino-acid fragment of nucb2 (mouse, SEQ ID NO: 18), recombinant, produced in E. coli (protein)
# peptide: VPIDVDKTKVHNTEPVENARIEPPDTGLYYDEYLKQVIEVLETDPHFREKLQKADIEEIRSGRLSQELDLVSHKVRTRLDEL
# B2: TKVHNTEPVENARIEPPDTGLYYDEYLKQVIEVLETDPHFREK LQKADIEEIRSGRLSQELDLVSHKVR (protein)
# chain: TKVHNTEPVENARIEPPDTGLYYDEYLKQVIEVLETDPHFREKLQKADIEEIRSGRLSQELDLVSHKVR
# modifications: amino acids by MALDI-TOF/TOF with Trypsic Peptides
# B3: NUCB2: hypothalamus-secreted protein containing 396 amino acids (protein, UniProt P80303 25-420, looked up)
# Nucleobindin-2: VPIDIDKTKVQNIHPVESAKIEPPDTGLYYDEYLKQVIDVLETDKHFREKLQKADIEEIKSGRLSKELDLVSHHVRTKLDELKRQEVGRLRMLIKAKLDSLQDIGMDHQALLKQFDHLNHLNPDKFESTDLDMLIKAATSDLEHYDKTRHEEFKKYEMMKEHERREYLKTLNEEKRKEEESKFEEMKKKHENHPKVNHPGSKDQLKEVWEETDGLDPNDFDPKTFFKLHDVNSDGFLDEQELEALFTKELEKVYDPKNEEDDMVEMEEERLRMREHVMNEVDTNKDRLVTLEEFLKATEKKEFLEPDSWETLDQQQFFTEEELKEYENIIALQENELKKKADELQKQKEELQRQHDQLEAQKLEYHQVIQQMEQKKLQQGIPPSGPAGELKFEPHI
# Assays:
# db/db mice [1] = experiment: Food intake and body weight of db/db mice; assay type: in vivo, mouse
# db/db mice [2] = experiment: Serum nesfatin-1 / pladin in db/db after i.v. plasmin inhibitor (HPLC); assay type: in vivo, mouse
# Experimental: Hypothalamus in acetic acid supplemented with protease inhibitor cocktail tablets (Roche, Indianapolis, Ind.) was homogenized, sonicated and heated at 95° C. for 15 minutes. The samples were then centrifuged at 13,200 rpm at 4° C. for 30 minutes. The supernatants were finally collected as their protein contents were determined by the Bradford assay (Thermo-Fisher Sci. Rockford, Ill.). Mouse serum was freshly prepared by drawing blood through ophthalmectomy. About […] hypothalamic total proteins or 25 μL serum were analyzed with Waters Delta 600E/2487/717 HPLC system using an analytical C18 reverse phase column (4.6×250 mm/5 μm, Hambon, Zhangjiagang, CN). Nesfatin-1 was eluted with a linear gradient from 20%-40% solvent B (solvent A: water with 0.1% trifluoroacetic acid, solvent B: acetonitrile with 0.1% trifluoroacetic acid) for 20 minutes at the flow rate of 1 ml/minute. The purified nesfatin-1 was used as the standard to determine the retention time and plot the standard curve. The fraction collected at the retention time was sent for the mass spectrometry analysis.
# Mouse serum was freshly prepared by drawing blood through ophthalmectomy. The sera of plg^−/−lepr^−/− and db/db mice were directly analyzed with Waters Delta 600E/2487/717 HPLC System using a C18 reverse phase column (4.6×250 mm, 5 μm, Hambon, Zhangjiagang, CN) and eluted with a linear gradient from 20%-40% acetonitrile in 0.1% TFA for 20 minutes at the flow rate of 1 ml/minute (Enriori et al., 2007). Compared with db/db mice, the divergent fractions eluted in plg^−/−lepr^−/− mice were collected for the determination of molecular weight using the Applied Biosystems 4800 Proteomics Analyzer (Applied Biosystems). The MS spectra were acquired in the liner mode at a range of peptide mass from 3,000 to 20,000 Dalton.
# post-surgical patients = experiment: AMCA treatment of post-surgical hyperglycemia in patients; assay type: in vivo, human; settings: 10 mg/kg i.v. BID, four post-surgical patients, blood glucose before 10-12 mmol/L
# db/db mice [3] = experiment: Blood glucose of db/db mice after injection of test substance; assay type: in vivo, mouse; settings: for active duration of anti-hyperglycemic effect in vivo: i.v. injection, hyperglycemic db/db mice; for anti-hyperglycemic effect (blood glucose): peripheral/i.v. injection, dose not stated
# plasmin = plasmin (Homo sapiens, UniProt P00747); experiment: Incubation with plasmin in vitro (proteolysis); assay type: biochemical; settings: for proteolysis by plasmin: incubated with plasmin in vitro
# Source text: The recovery of hypothalamic nesfatin-1 in plg^−/−lepr^−/− was consistent to its normalization in food intake and body weight. Fasted mice always had less nesfatin-1 in hypothalamus than their freely feeding counterparties (FIG. 2b). Furthermore, plasminogen deficiency provided a unique approach to study the chronic effect of elevated nesfatin-1 in hyperphagic obese animals, which was impossible for the i.c.v. or i.p. administration due to the short half-time of nesfatin-1. Consequently, agrp and npy were found reduced in plg^−/−lepr^−/−, while pomc was elevated compared with plg^+/+lepr^−/− (FIG. 3), contradicting to the previous report that i.c.v. nesfatin-1 didn't alter the expression of pomc, npy and agrp. Consistent to the present finding, the same group reported the up-regulation of pomc by i.p. nesfatin-1 in NTS recently.
# Carefully examining the amino acid sequence of pladin (SEQ ID NO: 23), it has several putative cleavage sites by plasmin (FIG. 11A).
# wild-type mice = experiment: Intravenous glucose tolerance test (IV-GTT / IGTT) in wild-type mice; assay type: in vivo, mouse; settings: i.v. glucose 1.5 g/kg
# Experimental: In the intravenous (i.v.) glucose tolerance test (IV-GTT), mice injected intravenously with 1 mg or 1.5 mg glucose per gram of body weight and placed in clean cages. Blood glucose was measured immediately before and at 5, 10, 20, 30, 60 and 120 minutes after the injection of glucose.
# [4] = tested on: Streptozotocin-induced type-1 diabetic C57BL/6J mice; experiment: Streptozotocin-induced type-1 diabetic mice, blood glucose; assay type: in vivo, mouse
# Experimental: Male C57BL/6J mice (10 weeks) were given intraperitoneal injections of Streptozotocin (STZ) in sodium citrate (pH 4.5) on two consecutive days (100 mg/kg/day). Blood glucose was measured by tail vein sampling using the glucose oxidase enzymatic test. Diabetes was defined as a morning blood glucose reading of >16 mM after STZ. When blood glucose levels exceeded 30 mM, diabetic mice were given 16 ng of porcine insulin (Wangbang, Xuzhou, CN) immediately to prevent the blood glucose being dangerous every second day to prevent weight loss while maintaining blood glucose levels within the hyperglycemic range (16-30 mM). Nesfatin-1 (100 μg/mouse) was i.v. injected either alone or combined with s.c. insulin (2 ng/mouse) to STZ-induced type-I diabetic mice.
# Male C57BL/6J mice (10 weeks) were intraperitoneally injected with 100 μg/g/day STZ in 100 mmol/L sodium citrate (pH 4.5) on two consecutive days. Blood glucose was measured by tail vein sampling using the glucose oxidase enzymatic test. When the fasting blood glucose reading was over 16 mmol/L after the STZ injection, the mice were considered to be type-1 diabetic. […]
# [5] = Clearance and half-life of i.v. peptide in circulation; assay type: in vivo, mouse; settings: for clearance from circulation in plg−/− versus wild-type (plg+/+) mice: i.v. injection
# ob/ob mice = experiment: Blood lipid analysis in ob/ob mice after i.v. injection; assay type: in vivo, mouse; settings: 100 ug i.v., 3 hours after injection
# Experimental: One hundred ug Nesfatin-1 was injected into the tail vein of ob/ob mice. Blood samples were taken 3 hours after the injection for lipid analysis.
# [6] = in circulation, Pan et al., 2007, Price et al.; cited from earlier work
# [7] = i.c.v. or i.p. injection; cited from earlier work
# rats [8] = settings: cited from earlier work
# [9] = blood-to-brain and brain-to-blood, nonsaturable system; cited from earlier work
# lean wild-type mice = experiment: Blood glucose of lean wild-type mice after i.v. injection; assay type: in vivo, mouse; settings: 10 nmol i.v.
# Experimental: Without anesthesia, mice were placed into a restricting tube. The testing substance such as nesfatin-1 or rPladin was i.v. injected via mice tail vein with a total volume of 150 μL. After that mice were returned to the cages with food and water available freely. In the i.p. injection experiment, mice without anesthesia were injected with the testing substances directly into the peritoneal with a total volume of 200 μL.
# rat = experiment: 0-3 h food intake of rat after i.p. and i.c.v. injection; assay type: in vivo; settings: for food intake: 0-3 h
# mice including db/db = experiment: Blood insulin in mice after rPladin; assay type: in vivo, mouse
# rats [10] = settings: injected directly into the brain of rats; cited from earlier work
# [11] = i.v. plasmin inhibitor to db/db (AMCA 15 mg/day once daily for three days)
# [12] = i.c.v. injection (25 pmol), db/db
# plasmin, sequence (P00747 581-810 limits assumed, species assumed): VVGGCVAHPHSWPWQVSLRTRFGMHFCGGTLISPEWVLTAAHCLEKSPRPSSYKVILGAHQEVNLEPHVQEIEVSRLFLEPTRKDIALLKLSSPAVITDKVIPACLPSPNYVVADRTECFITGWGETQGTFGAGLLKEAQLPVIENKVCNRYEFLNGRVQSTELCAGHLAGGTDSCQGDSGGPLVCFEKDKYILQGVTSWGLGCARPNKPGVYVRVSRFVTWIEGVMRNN
# plasmin, sequence (P00747 97-580 partner limits assumed, species assumed): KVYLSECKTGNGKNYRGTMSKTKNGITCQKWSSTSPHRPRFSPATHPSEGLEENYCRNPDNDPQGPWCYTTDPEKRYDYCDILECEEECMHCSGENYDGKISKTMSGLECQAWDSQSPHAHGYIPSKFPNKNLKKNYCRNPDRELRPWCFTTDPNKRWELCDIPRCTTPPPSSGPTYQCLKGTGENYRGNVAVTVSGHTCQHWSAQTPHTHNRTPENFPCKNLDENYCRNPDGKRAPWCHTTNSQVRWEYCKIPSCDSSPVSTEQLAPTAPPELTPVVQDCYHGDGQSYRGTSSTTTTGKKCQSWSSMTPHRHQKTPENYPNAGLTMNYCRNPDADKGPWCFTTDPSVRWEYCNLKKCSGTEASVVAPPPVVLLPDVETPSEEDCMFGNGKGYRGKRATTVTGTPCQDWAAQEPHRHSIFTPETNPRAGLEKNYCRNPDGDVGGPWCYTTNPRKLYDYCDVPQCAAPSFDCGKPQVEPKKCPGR
molecule,measurement,setting,value
"NC[C@H]1CC[C@H](C(=O)O)CC1 [AMCA, tranexamic acid]",body weight,db/db mice [1]; [11],reduction
same,food intake,db/db mice [1]; [11],reduction
same,serum pladin,db/db mice [2]; 10 minutes after i.v. 15 mg,increased
same,circulating (serum) nesfatin-1,db/db mice [2]; 30 minutes after i.v. injection,increased
same,blood glucose after treatment,post-surgical patients,6.8 to 9.2 mmol/L
same,fasting blood glucose,"db/db mice [3]; once-daily administration for 10 weeks since 2 weeks old, db/db",reduced significantly
B1,time to complete digestion by plasmin,"plasmin; in vitro, FIG. 1b",≤ 2 h
same,proteolysis by plasmin,plasmin,rapidly degraded
same,uptake of blood sugar,wild-type mice; 100 μg,significantly enhanced the uptake of blood sugar
same,blood glucose,[4]; 100 μg/mouse i.v. alone or with s.c. insulin 2 ng/mouse,decreased only when nesfatin-1 was injected with s.c. insulin
same,food intake,"db/db mice [1]; 25 pmol i.c.v., db/db mice",significantly inhibited food intake
same,clearance from circulation in plg−/− versus wild-type (plg+/+) mice,[5],cleared much slower in plg^−/− than plg^+/+ mice
same,HDL in blood,ob/ob mice,unaffected
same,LDL in blood,ob/ob mice,significantly reduced
same,total cholesterol in blood,ob/ob mice,significantly reduced
same,triglyceride in blood,ob/ob mice,significantly reduced
same,blood glucose,"db/db mice [3]; 10 nmol i.v., freely fed db/db",reduced blood glucose
same,blood glucose,"db/db mice [3]; 100 μg i.v., freely fed db/db",significantly reduced blood glucose
same,blood glucose,db/db mice [3]; [12],had no effect on the high levels of blood glucose; also recorded: little diabetic improvement
same,active duration of anti-hyperglycemic effect in vivo,db/db mice [3],> 6 h
same,anti-hyperglycemic effect (blood glucose),db/db mice [3]; db/db,significantly reduced blood glucose
same,half-life of nesfatin-1,[6],9 to 10 min and 10 min
same,food intake and body weight,[7],inhibits food intake and thereby reduces body weight
same,neuropsychological effect,rats [8],increasing anxiety and fear-related behaviors
same,crossing of the blood-brain barrier,[9],crosses the Blood Brain Barrier
B2,proteolysis by plasmin,plasmin,rapidly degraded; also recorded: completely digested by plasmin
same,blood glucose,lean wild-type mice,but not in lean wild-type
same,uptake of blood sugar,wild-type mice; 10 nmol,significantly enhanced the uptake of blood sugar
same,blood glucose,[4]; 10 nmol per mouse i.v. alone or with s.c. insulin 2 ng/mouse,lowered by rPladin only when insulin was also subcutaneously injected
same,food intake,rat; 25 pmol i.c.v. per rat,significantly inhibited food intake
same,food intake,rat; 30 nmol i.p. per rat,significantly inhibited food intake
same,inhibition of food intake relative to nesfatin-1,"rat; i.v., i.p. and i.c.v. administration",As potent as nesfatin-1; also recorded: same extent of inhibition in food intake as nesfatin-1
same,food intake,"db/db mice [1]; 25 pmol i.c.v., db/db mice",significantly inhibited food intake
same,half-life in circulation,[5]; data not shown,less than 10 minutes
same,clearance from circulation in plg−/− versus wild-type (plg+/+) mice,[5],cleared much slower in plg^−/− than wild-type mice
same,insulin,"mice including db/db; i.c.v. injection, db/db mice",could not affect blood glucose and insulin
same,blood insulin,"mice including db/db; i.v. administration, mice including db/db",did not significantly affect
same,blood glucose,"db/db mice [3]; 10 nmol i.v., freely fed db/db",significantly reduced blood glucose
same,blood glucose,db/db mice [3]; [12],had no effect on the high levels of blood glucose; also recorded: could not affect blood glucose and insulin
same,active duration of anti-hyperglycemic effect in vivo,db/db mice [3],6 h and > 6 h
same,anti-hyperglycemic effect (blood glucose),db/db mice [3]; db/db,significantly reduced blood glucose
same,anti-hyperglycemic effect after incubation with plasmin,"db/db mice [3]; plasmin digested rPladin, db/db (FIG. 11C)",lost
B3,anorexia and body weight,rats [10],promotes anorexia and decreases body weight

# Source: patent US8541367B2, “Plasma anti-diabetic NUCB2 peptide (pladin) and uses thereof” (Landing Biotech, Inc., priority 2009, dated 2013)
